Assay results as given in patent US6410255B1, “Optical probes and assays” (priority 1999, dated 2002).
Where no end group is shown, it is not given here. The star is where a group is joined. FITC = O=C1OC2(c3ccc(O)cc3Oc3cc(O)ccc32)c2ccc(NC(=S)*)cc21

Assays:
[1] = target: protein kinase A (Homo sapiens, UniProt P17612); test: Protein kinase A inhibitor assay with optical probe; format: biochemical; conditions: inhibitor 10 μM, ATP 10 μM
Protocol: […] After one hour incubation at 30 C, chymotrypsin to a final concentration of 0.8 nM was added and the 460/530 ratio was determined after one hour, as described above (Example 6).

[2] = target: PTP-B; test: Inhibition of protein tyrosine phosphatase with phosphorylated Src-2 probe; format: biochemical; conditions: read-out: apparent IC50
Protocol: (§1) Optical probes were first phosphorylated to completion as described above, and samples of phosphorylated optical probe, at a final concentration of 500 nM, were incubated with various concentrations of protein tyrosine phosphatase-B (PTP-B) agarose (Upstate Biotechnology) for 20 minutes at 30 C in 0.1×PBS. At the required time interval, PTP-B-agarose was removed by a brief microfuige spin prior to transfer to 96-well Cytofluor plates for fluorescence measurements, after addition of chymotrypsin (100 nM), as described in Example 1.

[3] = target: T1, v-Abl kinase (Abelson murine leukemia virus, UniProt P00521); test: v-Abl kinase phosphorylation of optical probe, fluorescence readout after chymotrypsin; format: biochemical
T1 construct: purchased Calbiochem
T1 sequence (P00521 whole entry): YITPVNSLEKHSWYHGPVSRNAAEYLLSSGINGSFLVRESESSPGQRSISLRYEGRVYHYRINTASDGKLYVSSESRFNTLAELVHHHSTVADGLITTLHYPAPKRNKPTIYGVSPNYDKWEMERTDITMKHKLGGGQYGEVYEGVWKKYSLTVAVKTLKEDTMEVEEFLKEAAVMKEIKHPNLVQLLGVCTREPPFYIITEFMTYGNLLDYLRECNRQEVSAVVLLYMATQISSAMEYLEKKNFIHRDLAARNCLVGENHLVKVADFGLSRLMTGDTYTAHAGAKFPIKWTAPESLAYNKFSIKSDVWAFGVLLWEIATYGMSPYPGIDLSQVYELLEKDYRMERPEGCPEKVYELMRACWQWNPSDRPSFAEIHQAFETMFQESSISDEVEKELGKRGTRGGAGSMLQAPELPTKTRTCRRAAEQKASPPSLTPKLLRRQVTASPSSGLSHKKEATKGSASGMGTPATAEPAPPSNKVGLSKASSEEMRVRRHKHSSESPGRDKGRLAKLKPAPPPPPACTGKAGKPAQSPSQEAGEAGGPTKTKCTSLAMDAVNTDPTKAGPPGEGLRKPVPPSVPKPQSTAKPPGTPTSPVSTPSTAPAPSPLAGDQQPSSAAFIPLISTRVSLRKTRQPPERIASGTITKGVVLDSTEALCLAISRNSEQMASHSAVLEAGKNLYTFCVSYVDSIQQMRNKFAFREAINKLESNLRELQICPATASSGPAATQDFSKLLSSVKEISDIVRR

[4] = target: T2, chymotrypsin (Bos taurus, UniProt P00766); test: Chymotrypsin cleavage of phosphorylated and non-phosphorylated tyrosine kinase optical probes; format: biochemical, bovine; parameters: purchased Calbiochem 230832
[5] = target: T3, Src kinase (Homo sapiens, UniProt P12931); test: Src kinase phosphorylation of optical probes; format: biochemical; conditions: fluorescence after protease incubation; read-out: apparent Km with respect to the Src kinase
T3 construct: purchased Upstate Biotechnology

[6] = system: protein tyrosine phosphatase-B (PTP-B); test: Dephosphorylation of phosphorylated optical probes by PTP-B; format: biochemical; conditions: for Fluorescence emission ratio of peptide after protease treatment: phosphorylated probe 500 nM, 20 minutes at 30 C
Protocol: as §1
In this experiment, the relative rates of dephosphorylation of the phosphorylated Src-2-specific substrate (SEQ. ID. NO: 29) and an abl-specific (SEQ. I.D. No. 4) substrate optical probes by the protein tyrosine phosphatase PTP-B were compared.

[7] = target: T2, chymotrypsin; test: Chymotrypsin cleavage of optical probe with or without protein kinase A phosphorylation; format: biochemical; conditions: for 460/530 emission ratio, Non-phosphorylated Optical probe / 460/530 emission ratio, Phosphorylated Optical probe: 0.8 nM chymotrypsin
Protocol: ID. NO: 12, below, (the P′1, position with respect to the protease cleavage site of chymotrypsin).
The peptide ([…], SEQ. ID. NO: 12) was labeled with fluorescein isothiocyanate at the N-termninus and 7-hydroxycoumarin-3-carboxamide at the C-terminus as described above. To determine the relative proteolytic activity of the phosphorylated and non-phosphorylated optical probes, samples of both were prepared. […] Mock kinase reactions with no ATP were used to create non-phosphorylated, control samples. In both cases, the samples were diluted 10 fold with buffer containing 50 mM HEPES, pH 7.5, 10 mM CaCl2 and 0.01% Brij-35, and incubated with 0.8 nM chymotrypsin.

[8] = system: protein kinase C; test: Proteolytic susceptibility of optical probe after protein kinase C phosphorylation; format: biochemical; conditions: chymotrypsin
Source text: To measure protein kinase C activity using the optical probes of the present invention, a peptide ([…], SEQ. ID. NO: 12) was designed in which phosphorylation by protein kinase C occurred at the P′1 position (underlined in SEQ. ID. NO: 12) with respect to the scissile bond cleaved by chymotrypsin. This enabled an optimal protein kinase C recognition motif to placed within the optical probe sequence, and to create a site of phosphorylation that modulated the proteolytic sensitivity of the substrate towards chymotrypsin.

[9] = target: T4, caspase-3 (Homo sapiens, UniProt P42574); test: Caspase-3 cleavage of optical probe with or without ERK2 phosphorylation; format: biochemical; conditions: 30 minutes exposure to caspase-3
T4 construct: purchased Upstate Biotechnology
T4 sequence (P42574 29-175 limits assumed): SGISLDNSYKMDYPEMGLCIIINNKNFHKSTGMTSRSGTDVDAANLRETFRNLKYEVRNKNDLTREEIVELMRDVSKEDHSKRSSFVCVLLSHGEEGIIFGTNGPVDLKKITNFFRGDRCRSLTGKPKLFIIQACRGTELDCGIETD
T4 sequence (P42574 176-277 limits assumed): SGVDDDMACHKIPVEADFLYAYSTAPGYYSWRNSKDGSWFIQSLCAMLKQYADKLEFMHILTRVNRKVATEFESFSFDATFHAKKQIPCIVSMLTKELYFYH
Protocol: To determine how phosphorylation on serine in the optical probe (SEQ. ID. NO: 24) effected the rate of caspase-3 cleavage, samples of phosphorylated and control (non-phosphorylated) optical probes were treated with the protease caspase-3. Phosphorylated samples of the optical probe (70 pmol) were prepared by 8 hour to overnight incubation with ERK2 kinase (Biomol). Reactions were typically performed in 10 μl using 200-500 μM ATP and 50-200 ng ERK2 in a buffer consisting of 50 mM HEPES, pH 7.5, 10 mM MgCl2, 1 mM EGTA, and 1 mM DTT at 30° C. Mock kinase reactions were performed for preparation of control (non-phosphorylated) optical probe as above, except ATP was omitted. To monitor cleavage of the optical probes by caspase-3, 10 μL volumes of phosphorylated and control (non-phosphorylated) samples of the optical probe were placed in individual wells of a 96-well multiwell plate. Caspase-3 cleavage reactions were carried out in these samples after dilution to 100 μL in a buffer consisting of 100 mM HEPES, pH 7.5, 5 mM DTT, 0.5 mM EDTA, 20% glycerol, 0.01% Brij-35, and 50-100 ng caspase-3 (Upstate Biotechnology), and incubated at room temperature. Emission readings were taken at 5 minute intervals during the course of the caspase-3 incubation using a Cytofluor plate reader as described in Example 1.

O=S(=O)(NCCNC/C=C/c1ccc(Br)cc1)c1cccc2cnccc12 [H-89]
inhibition of protein kinase A activity [1]: almost complete inhibition

[O]=[V]([OH])([OH])[OH] [Ortho-vanadate, orthovanadate]
IC50 [2]: 420 nM

AEAIYAAPL [abl substrate]
turnover of the optical probe by v-Abl [3]: 9.5 s⁻¹
Km ([3]; read-out: apparent Km for the substrate): 40 µM
difference in emission ratios of phosphorylated (non-cleaved) and non-phosphorylated (cleaved) substrate [4]: 30 fold

GEEEIYGVIEK [Src-2, fluorescently labeled optical probe for Src kinase; phosphorylated form is the PTP-B substrate]
Km [5]: 19 µM
Fluorescence emission ratio of peptide after protease treatment ([6]; Log concentration of PTP-B −7.7): 17.7
Fluorescence emission ratio of peptide after protease treatment ([6]; Log concentration of PTP-B −8.7): 17.6
Fluorescence emission ratio of peptide after protease treatment ([6]; Log concentration of PTP-B −9.7): 15.8
Fluorescence emission ratio of peptide after protease treatment ([6]; Log concentration of PTP-B −10.7): 5.40
Fluorescence emission ratio of peptide after protease treatment ([6]; Log concentration of PTP-B −11.7): 1.99
Fluorescence emission ratio of peptide after protease treatment ([6]; Log concentration of PTP-B −12.7): 1.75
Fluorescence emission ratio of peptide after protease treatment ([6]; Log concentration of PTP-B −13.7): 1.62
Fluorescence emission ratio of peptide after protease treatment ([6]; Log concentration of PTP-B −14.7): 1.60
kcat ([6]; phosphorylated probe, PTP-B): 79 s⁻¹
Km ([6]; phosphorylated probe, PTP-B, Michaelis-Menten plot, read-out: apparent Km): 1.3 µM

RRRKFSLRRKA ({FITC}-RRRKFSLRRKA; not fully specified (residue 6, C-terminus)) [SEQ. ID. NO: 12, peptide labeled with fluorescein isothiocyanate at N-terminus and 7-hydroxycoumarin-3-carboxamide at C-terminus; protein kinase A and C probe]
460/530 emission ratio, Non-phosphorylated Optical probe ([7]; time of cleavage 0 minutes): 0.34
460/530 emission ratio, Phosphorylated Optical probe ([7]; time of cleavage 0 minutes): 0.33
460/530 emission ratio, Non-phosphorylated Optical probe ([7]; time of cleavage 10 minutes): 3.15
460/530 emission ratio, Phosphorylated Optical probe ([7]; time of cleavage 10 minutes): 0.54
460/530 emission ratio, Non-phosphorylated Optical probe ([7]; time of cleavage 20 minutes): 6.71
460/530 emission ratio, Phosphorylated Optical probe ([7]; time of cleavage 20 minutes): 0.78
460/530 emission ratio, Phosphorylated Optical probe ([7]; time of cleavage 30 minutes): 1.02
460/530 emission ratio, Phosphorylated Optical probe ([7]; time of cleavage 40 minutes): 1.27
460/530 emission ratio, Non-phosphorylated Optical probe ([7]; time of cleavage 50 minutes): 13.34
460/530 emission ratio, Phosphorylated Optical probe ([7]; time of cleavage 50 minutes): 1.53
460/530 emission ratio, Phosphorylated Optical probe ([7]; time of cleavage 60 minutes): 1.78
Fold difference in ratios ([7]; time of cleavage 0 minutes): 1.0
Fold difference in ratios ([7]; time of cleavage 10 minutes): 5.8
Fold difference in ratios ([7]; time of cleavage 20 minutes): 8.6
Fold difference in ratios ([7]; time of cleavage 30 minutes): 9.7
Fold difference in ratios ([7]; time of cleavage 40 minutes): 9.5
Fold difference in ratios ([7]; time of cleavage 50 minutes): 8.7
Fold difference in ratios ([7]; time of cleavage 60 minutes): 7.9
effect of phosphorylation by protein kinase C on proteolytic susceptibility of the substrate [8]: significantly modulated

RVDEPFSPGEK (Optical probe with p-Ser in P′(sub 1)) [SEQ. ID. NO: 24, ERK kinase specific optical probe cleaved by caspase-3]
maximal difference in emission ratio of phosphorylated and non-phosphorylated optical probes [9]: over a three fold difference
